This is an account of results in PMC3815950 (Microbial biotechnology, 2009).

Substrate in series [1]: [H][C@]12SCC(COC(C)=O)=C(C(=O)O)N1C(=O)[C@H]2NC(=O)CCC[C@@H](N)C(=O)O
Description: acetate release, Michaelis-Menten. It counts as biochemical, Thermotoga maritima. To be noted: 50 mM sodium phosphate pH 6.5, 60 °C.

Series [2] deals with the molecule itself. Description: SEC.

Usually Km stands for the substrate concentration at which the rate is half of its maximum. As usually defined, the Vmax is the top rate of the reaction or transport when substrate is in excess. What is called kcat is the maximal rate divided by the concentration of active sites. Usually kcat/Km stands for the turnover number divided by the Michaelis constant. A word on the stoichiometry N: it is the number of molecules, sites or subunits per partner or assembly.

Several values for one entry are separate records, joined by “and”; a condition that tells them apart may be missing. Equal entries are not always repeated.

B1: Thermotoga maritima acetyl xylan esterase AxeA (enzyme)
chain: MAFFDLPLEELKKYRPERYEEKDFDEFWEETLAESEKFPLDPVFERMESHLKTVEAYDVTFSGYRGQRIKGWLLVPKLEEEKLPCVVQYIGYNGGRGFPHDWLFWPSMGYICFVMDTRGQGSGWLKGDTPDYPEGPVDPQYPGFMTRGILDPRTYYYRRVFTDAVRAVEAAASFPQVDQERIVIAGGSQGGGIALAVSALSKKAKALLCDVPFLCHFRRAVQLVDTHPYAEITNFLKTHRDKEEIVFRTLSYFDGVNFAARAKIPALFSVGLMDNICPPSTVFAAYNYYAGPKEIRIYPYNNHEGGGSFQAVEQVKFLKKLFEKG
B1: in series [1], the Km is 4.18 ± 0.97 mM, the maximum rate (Vmax) amounted to 19.2 µmol/min/mg, the kcat stood at 11.8 s⁻¹ and the kcat/Km was determined as 2830 M⁻¹ s⁻¹. For the same protein, the “stoichiometry N” value in series [2] is 6 and 2.
